Assay results published in paper PMC5818740 (2018).
Ends that are not written are not given here.

Target: PICK PDZ-BAR construct
Experiment: FP

PICK PDZ-BAR construct, sequence (chain, as listed by the source): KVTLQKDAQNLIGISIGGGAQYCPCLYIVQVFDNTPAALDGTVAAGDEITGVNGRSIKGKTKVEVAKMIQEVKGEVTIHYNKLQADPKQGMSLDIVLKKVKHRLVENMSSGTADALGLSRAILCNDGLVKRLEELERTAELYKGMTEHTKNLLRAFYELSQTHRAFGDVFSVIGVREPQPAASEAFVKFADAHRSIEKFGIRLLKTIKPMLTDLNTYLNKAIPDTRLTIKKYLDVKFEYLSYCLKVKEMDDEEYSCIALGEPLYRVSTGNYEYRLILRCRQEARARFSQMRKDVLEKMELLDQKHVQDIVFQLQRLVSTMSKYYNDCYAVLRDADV

B1: GluR2 peptide (competitor in the fluorescence polarization assay) (peptide)
chain: VYGIESVKI-OH
IC50: 15.3 µM
